Our source for the stoichiometry N values is publication PMC12094035.

The experiment concerns the target human γ-tubulin ring complex (γ-TuRC), the reconstituted complex without NEDD1 (human) (UniProt P23258). In words: cryo-EM structure; NEDD1-containing rec-γ-TuRC; free particles in micrographs of Aher et al. (2024), processed anew; consensus map 4.7 Å; model from AlphaFold 3 predictions fitted to the map and refined, side chains trimmed to β-carbons.

For orientation: stoichiometry N means a count of units in the complex or per binding partner.

With “neural precursor cell expressed, developmentally downregulated 1 (NEDD1), full length, in the reconstituted human γ-TuRC (from UniProt Q8NHV4 1-660) (natural protein)”, the stoichiometry N is 4.
